Assay in all cases: GST pulldown, Western blot densitometry
Holding throughout (conditions): incubated overnight with lysates; GST-only control 10 (PA2 lysate), 8 (WT lysate)
(In general: Immunoblotting shows a protein as a band on a membrane.)

Assay [1] addresses GST-tagged CMS SH3 domain III.
Assay [2] has as its target GST-tagged CMS SH3 domain II.
Assay [3] deals with GST-tagged CMS SH3 domain I.

In the case of “HCV NS5A protein (WT) expressed from SGR-neo-JFH-1 (from UniProt Q99IB8) PA2: P2 motif PTPPPR -> ATPAAA (P->A; P->A; P->A; R->A; residue numbers not printed)”, the figures for the response (NS5A:GST-SH3 ratio (%)) in assay [1], in assay [2] and in assay [3] were 10, 9 and 16, respectively.

(Values after article PMC4681064.)
